Assay results as given in publication PMC8755724, “Single particle cryo-EM structure of the outer hair cell motor protein prestin” (Nature Communications, 2022).

Molecular target: the molecule itself
Assay: cryo-EM structure; single-particle cryo-EM of detergent-solubilised prestin (extracted in digitonin, purified in GDN), about 2 mg/ml, 10 mM HEPES, 200 mM NaCl, 0.02% GDN, pH 7.4; C2 symmetry imposed; 3.6 Å

B1: full-length prestin from gerbil (Meriones unguiculatus) tagged at its C terminus with enhanced yellow fluorescent protein (EYFP) (natural protein, UniProt Q9JKQ2 1-744, looked up)
chain: MDHAEENEIPVATQKYHVERPIFSHPVLQERLHVKDKVSESIGDKLKQAFTCTPKKIRNIIYMFLPITKWLPAYKFKEYVLGDLVSGISTGVLQLPQGLAFAMLAAVPPVFGLYSSFYPVIMYCFFGTSRHISIGPFAVISLMIGGVAVRLVPDDIVIPGGVNATNGTEARDALRVKVAMSVTLLSGIIQFCLGVCRFGFVAIYLTEPLVRGFTTAAAVHVFTSMLKYLFGVKTKRYSGIFSVVYSTVAVLQNVKNLNVCSLGVGLMVFGLLLGGKEFNERFKEKLPAPIPLEFFAVVMGTGISAGFNLHESYSVDVVGTLPLGLLPPANPDTSLFHLVYVDAIAIAIVGFSVTISMAKTLANKHGYQVDGNQELIALGICNSIGSLFQTFSISCSLSRSLVQEGTGGKTQLAGCLASLMILLVILATGFLFESLPQAVLSAIVIVNLKGMFMQFSDLPFFWRTSKIELTIWLTTFVSSLFLGLDYGLITAVIIALLTVIYRTQSPSYKVLGQLPDTDVYIDIDAYEEVKEIPGIKIFQINAPIYYANSDLYSNALKRKTGVNPALIMGARRKAMRKYAKEVGNANIANAAVVKVDGEVDGENATKPEEEDDEVKYPPIVIKTTFPEELQRFMPQTENVHTIILDFTQVNFIDSVGVKTLAVMVKEYGDVGIYVYLAGCSPQVVNDLTRNRFFENPALKELLFHSIHDAVLGSHVREAMAEQEASAPPPQDDMEPNATPTTPEA
notes: prestin (Slc26a5), gerbil (Meriones unguiculatus), GenBank AF230376, full-length cDNA; the model is built to residue A726; also called Slc26a5; prestin-YFP; not shown: EYFP, C-terminal, kept
- stoichiometry N: 2
